The source of these data is article PMC6497270, “Thermodynamic investigation of DNA-binding affinity of wild-type and mutant transcription factor RUNX1”.

The target in one data set is RUNX1 K83R (Homo sapiens, UniProt Q01196 1-181, K83R). Nature of the data set: ITC; without CBFβ; ITC: 20 uM RUNX1 in cell, 100 uM DNA in syringe, 10 mM HEPES-NaOH pH 7.5, 180 mM NaCl, 0.005% Tween 20; temperature stated as 277 K (Methods) but 25 °C (Results). The settings on record: protein: recombinant; tags: N-terminal His6; (21 bp).
The target of a further data set is RUNX1 K83R/H179K (Homo sapiens, UniProt Q01196 1-181, K83R;H179K). Described as above. The settings on record: protein: recombinant; tags: N-terminal His6; (21 bp).
The target in data set [1] is RUNX1 WT (RUNT-containing) (Homo sapiens, UniProt Q01196 1-181). The description is as above. The settings on record: protein: recombinant; tags: N-terminal His6; (21 bp).
The target in another data set is RUNX1 H179K (Homo sapiens, UniProt Q01196 1-181, H179K). Described as above. The settings on record: protein: recombinant; tags: N-terminal His6; (21 bp).
The next data set deals with RUNX1 R139Q (Homo sapiens, UniProt Q01196 1-181, R139Q). The description is as above. The settings on record: protein: recombinant; tags: N-terminal His6; (21 bp).
The next data set has as its target RUNX1 S114L (Homo sapiens, UniProt Q01196 1-181, S114L). The description is as above. The settings on record: protein: recombinant; tags: N-terminal His6; (21 bp).
The next data set addresses RUNX1 R139Q;CBFβ (Homo sapiens;Homo sapiens?, UniProt Q01196;Q13951 1-181;1-141, R139Q|). Nature of the data set: ITC; RUNX1:CBFβ 1:2; ITC: 20 uM RUNX1 in cell, 100 uM DNA in syringe, 10 mM HEPES-NaOH pH 7.5, 180 mM NaCl, 0.005% Tween 20; temperature stated as 277 K (Methods) but 25 °C (Results). The settings on record: protein: recombinant;recombinant; tags: N-terminal His6;; copies: 1;1; (21 bp).

Data set [2] deals with RUNX1 WT (RUNT-containing);CBFβ (Homo sapiens;Homo sapiens?, UniProt Q01196;Q13951 1-181;1-141, |). The description is as above. The settings on record: protein: recombinant;recombinant; tags: N-terminal His6;; copies: 1;1; (21 bp).
In the next data set the target is RUNX1 K83R;CBFβ (Homo sapiens;Homo sapiens?, UniProt Q01196;Q13951 1-181;1-141, K83R|). Described as above. The settings on record: protein: recombinant;recombinant; tags: N-terminal His6;; copies: 1;1; (21 bp).
A further data set deals with RUNX1 H179K;CBFβ (Homo sapiens;Homo sapiens?, UniProt Q01196;Q13951 1-181;1-141, H179K|). The data set is described as above. The settings on record: protein: recombinant;recombinant; tags: N-terminal His6;; copies: 1;1; (21 bp).
Another data set concerns the target RUNX1 S114L;CBFβ (Homo sapiens;Homo sapiens?, UniProt Q01196;Q13951 1-181;1-141, S114L|). The data set is described as above. The settings on record: protein: recombinant;recombinant; tags: N-terminal His6;; copies: 1;1; (21 bp).
Another data set addresses RUNX1 K83R/H179K;CBFβ (Homo sapiens;Homo sapiens?, UniProt Q01196;Q13951 1-181;1-141, K83R;H179K|). The data set is described as above. The settings on record: protein: recombinant;recombinant; tags: N-terminal His6;; copies: 1;1; (21 bp).
The target of a further data set is RUNX1 K83E (Homo sapiens, UniProt Q01196 1-181, K83E). Nature of the data set: ITC; without CBFβ; no significant enthalpy change; ITC: 20 uM RUNX1 in cell, 100 uM DNA in syringe, 10 mM HEPES-NaOH pH 7.5, 180 mM NaCl, 0.005% Tween 20; temperature stated as 277 K (Methods) but 25 °C (Results). The settings on record: protein: recombinant; tags: N-terminal His6; (21 bp).

For the next data set, the target named is RUNX1 K83E;CBFβ (Homo sapiens;Homo sapiens?, UniProt Q01196;Q13951 1-181;1-141, K83E|). Nature of the data set: ITC; RUNX1:CBFβ 1:2; no significant enthalpy change; ITC: 20 uM RUNX1 in cell, 100 uM DNA in syringe, 10 mM HEPES-NaOH pH 7.5, 180 mM NaCl, 0.005% Tween 20; temperature stated as 277 K (Methods) but 25 °C (Results). The settings on record: protein: recombinant;recombinant; tags: N-terminal His6;; copies: 1;1; (21 bp).
RUNX1 K83E;CBFβ, sequence (Q01196 1-181 K83E, chain 1 of 2): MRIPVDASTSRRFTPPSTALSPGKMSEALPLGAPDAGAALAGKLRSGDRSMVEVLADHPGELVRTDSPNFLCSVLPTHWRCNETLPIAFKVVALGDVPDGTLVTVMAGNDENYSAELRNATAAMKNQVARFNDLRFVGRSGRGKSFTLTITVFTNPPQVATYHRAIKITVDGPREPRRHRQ
RUNX1 K83E;CBFβ, sequence (Q13951 1-141, chain 2 of 2): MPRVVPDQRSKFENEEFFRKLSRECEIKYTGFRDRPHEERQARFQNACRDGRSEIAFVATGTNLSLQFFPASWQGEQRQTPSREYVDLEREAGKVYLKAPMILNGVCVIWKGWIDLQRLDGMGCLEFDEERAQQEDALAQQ

RUNX1 R139Q, sequence (Q01196 1-181 R139Q): as the sequence (Q01196 1-181 K83E, chain 1 of 2) above, with E83K, R139Q counted along it
RUNX1 R139Q;CBFβ, sequence (Q01196 1-181 R139Q, chain 1 of 2): as the sequence (Q01196 1-181 K83E, chain 1 of 2) above, with E83K, R139Q counted along it
RUNX1 R139Q;CBFβ, sequence (Q13951 1-141, chain 2 of 2): as the sequence (Q13951 1-141, chain 2 of 2) above
RUNX1 H179K, sequence (Q01196 1-181 H179K): as the sequence (Q01196 1-181 K83E, chain 1 of 2) above, with E83K, H179K counted along it
RUNX1 H179K;CBFβ, sequence (Q01196 1-181 H179K, chain 1 of 2): as the sequence (Q01196 1-181 K83E, chain 1 of 2) above, with E83K, H179K counted along it
RUNX1 H179K;CBFβ, sequence (Q13951 1-141, chain 2 of 2): as the sequence (Q13951 1-141, chain 2 of 2) above
RUNX1 WT (RUNT-containing);CBFβ, sequence (Q01196 1-181, chain 1 of 2): as the sequence (Q01196 1-181 K83E, chain 1 of 2) above, with E83K counted along it
RUNX1 WT (RUNT-containing);CBFβ, sequence (Q13951 1-141, chain 2 of 2): as the sequence (Q13951 1-141, chain 2 of 2) above
RUNX1 WT (RUNT-containing), sequence (Q01196 1-181): as the sequence (Q01196 1-181 K83E, chain 1 of 2) above, with E83K counted along it
RUNX1 K83R/H179K, sequence (Q01196 1-181 K83R/H179K): as the sequence (Q01196 1-181 K83E, chain 1 of 2) above, with E83R, H179K counted along it
RUNX1 K83R/H179K;CBFβ, sequence (Q01196 1-181 K83R/H179K, chain 1 of 2): as the sequence (Q01196 1-181 K83E, chain 1 of 2) above, with E83R, H179K counted along it
RUNX1 K83R/H179K;CBFβ, sequence (Q13951 1-141, chain 2 of 2): as the sequence (Q13951 1-141, chain 2 of 2) above
RUNX1 S114L, sequence (Q01196 1-181 S114L): as the sequence (Q01196 1-181 K83E, chain 1 of 2) above, with E83K, S114L counted along it
RUNX1 S114L;CBFβ, sequence (Q01196 1-181 S114L, chain 1 of 2): as the sequence (Q01196 1-181 K83E, chain 1 of 2) above, with E83K, S114L counted along it
RUNX1 S114L;CBFβ, sequence (Q13951 1-141, chain 2 of 2): as the sequence (Q13951 1-141, chain 2 of 2) above
RUNX1 K83R, sequence (Q01196 1-181 K83R): as the sequence (Q01196 1-181 K83E, chain 1 of 2) above, with E83R counted along it
RUNX1 K83R;CBFβ, sequence (Q01196 1-181 K83R, chain 1 of 2): as the sequence (Q01196 1-181 K83E, chain 1 of 2) above, with E83R counted along it
RUNX1 K83R;CBFβ, sequence (Q13951 1-141, chain 2 of 2): as the sequence (Q13951 1-141, chain 2 of 2) above
RUNX1 K83E, sequence (Q01196 1-181 K83E): as the sequence (Q01196 1-181 K83E, chain 1 of 2) above

B1: CSF-1R promoter 21 bp DNA (dsDNA)
DNA 1: CAAACTCTGTGGTTGCCTTGC
DNA 2: GCAAGGCAACCACAGAGTTTG
With B1, the Kd with RUNX1 K83R is 480 ± 150 nM; with RUNX1 K83R/H179K, 290 ± 50 nM; in data set [1] it was 490 ± 10 nM; with RUNX1 H179K, 350 ± 120 nM; with RUNX1 R139Q, 1480 ± 510 nM; in the data set with RUNX1 S114L, 700 ± 80 nM. For the same molecule, the Kd in the data set with RUNX1 R139Q;CBFβ came to 3350 ± 800 nM; in [2], 230 ± 50 nM; in the data set with RUNX1 K83R;CBFβ, 160 ± 30 nM; with RUNX1 H179K;CBFβ it was 100 ± 40 nM; with RUNX1 S114L;CBFβ, 390 ± 80 nM; with RUNX1 K83R/H179K;CBFβ it was 73 ± 5 nM. The binding result with RUNX1 K83E and with RUNX1 K83E;CBFβ was “no binding” throughout.
